The target in data set [1] is human PKD1 kinase domain (PKD1^CAT, residues 569–892) (human) (UniProt Q15139). The data set can be described thus: SEC-MALS; PKD1^CAT, first run, 625 μg injected. A general note: SEC sorts molecules by how far they enter the pores of the column.
Data set [2] has the same target. Put plainly: fluorescence polarisation; fluorescence anisotropy; 195 μM PKD1^CAT with 80 nM Atto488-labeled PKD1^CAT successively diluted with buffer containing 80 nM labeled protein; 50 mM Tris pH 7.5, 220 mM KCl, 1% glycerol, 1 mM TCEP; 20 °C; single binding model; dimer to monomers. For orientation: Polarisation of emitted light reports the rotation of a fluorescent probe.

Data set [3] deals with the molecule itself. Put plainly: SEC-MALS; Superdex 200 10/300; 20 mM Tris pH 7.5, 150 mM KCl, 1 mM TCEP; 50 μl of 2.5 mg/ml protein injected.
The target of data set [4] is T1, Atto488-labeled DKF-1 ULD^R42C (C. elegans, UniProt Q9XUJ7 1-94, R42C, Atto488 (maleimide-conjugated) on cysteine 42).
T1 construct: C. elegans DKF-1, residues 1-94 (ubiquitin-like domain) with the surface-exposed arginine 42 mutated to cysteine; Labeling efficiency estimated at about 80%; also called Atto488-ULD^R42C; source: E. coli BL21*, purified in the same way as the WT counterpart, labelled with maleimide-Atto488; not shown: GST, N-terminal, cleaved
T1 sequence (looked up): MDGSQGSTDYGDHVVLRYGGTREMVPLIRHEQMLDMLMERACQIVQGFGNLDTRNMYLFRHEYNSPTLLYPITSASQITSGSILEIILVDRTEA
The data set can be described thus: fluorescence polarisation; fluorescence anisotropy; ULD or ULD^F59E (222 or 150 μM stock) titrated into 35–70 nM Atto488-ULD^R42C; 20 mM Tris pH 7.5, 150 mM KCl, 1% glycerol, 1 mM TCEP; 20 °C; single-site binding model; dimer to monomers. The conditions noted are these: both partners purified.

Data set [5] deals with the molecule itself. The data set can be described thus: fluorescence polarisation; fluorescence anisotropy; unlabeled PKD1 ULD (800 μM stock) titrated into 40 nM Atto488-labeled PKD1 ULD; 20 mM Tris pH 7.5, 150 mM KCl, 1 mM TCEP, 1% glycerol; 20 °C; single binding model; dimer to monomers.

Numbering of substitutions follows the chain as printed.

The source of these data is publication PMC6768651, “A ubiquitin-like domain controls protein kinase D dimerization and activation by trans-autophosphorylation” (The Journal of Biological Chemistry, 2019).

Usually stoichiometry N stands for a count of units in the complex or per binding partner. A word on the Kd: it is the constant that tells how readily two partners part at equilibrium. A high value points to lower affinity. As for “human PKD1 kinase domain (PKD1^CAT, residues 569–892) (from UniProt Q15139 569-892) (domain or fragment)”, in data set [1], the stoichiometry N came to 2. In data set [2], this molecule gave a Kd of 50 µM.

B1: DKF-1 ULD (DKF-1^1–94) (domain or fragment, C. elegans, UniProt Q9XUJ7 1-94, looked up)
chain: T1 sequence (looked up) with C42R
notes: C. elegans PKD homolog DKF-1, residues 1-94 (ubiquitin-like domain); also called ULD^WT; source: E. coli BL21*, purified (GSH beads, TEV cleavage on beads, SEC); not shown: GST, N-terminal, cleaved
Consider B1, for which the “stoichiometry N” value in data set [3] stood at 2. In data set [4], this molecule yielded a Kd of 0.65 ± 0.07 µM.

B2: DKF-1 ULD–C1a (DKF-1^1–151) (domain or fragment, C. elegans, UniProt Q9XUJ7 1-151, looked up)
chain: MDGSQGSTDYGDHVVLRYGGTREMVPLIRHEQMLDMLMERARQIVQGFGNLDTRNMYLFRHEYNSPTLLYPITSASQITSGSILEIILVDRTEAAVIPHVVEPESYMRPTFCDFCGEMLTGLMRQGVKCKNCNGNFHKRCSNAARNNCGAP
notes: C. elegans PKD homolog DKF-1, residues 1-151 (ubiquitin-like domain and C1a domain); The final crystallographic model comprises residues 12-151; also called PKD N terminus; source: E. coli BL21*, purified (GSH beads, TEV cleavage on beads, SEC); not shown: GST, N-terminal, cleaved
As for B2, the “stoichiometry N” value in data set [3] worked out at 2.

B3: human PKD1 ULD (PKD1^48–143) (domain or fragment, UniProt Q15139 48-143, looked up)
chain: GISFHLQIGLSREPVLLLQDSSGDYSLAHVREMACSIVDQKFPECGFYGMYDKILLFRHDPTSENILQLVKAASDIQEGDLIEVVLSASATFEDFQ
notes: human protein kinase D1 (PKD1), residues 48-143 (ubiquitin-like domain); In the anisotropy titration 40 nM of the same protein carried Atto488 (maleimide) on its surface-exposed cysteines (labeling efficiency 50%); Addgene 31527 is the plasmid carrying the PKD1 gene; also called ULD of human PKD1; source: E. coli BL21*, purified (GSH beads, TEV cleavage on beads, SEC); not shown: GST, N-terminal, …
As to B3, in data set [3], the “stoichiometry N” value was determined as 2. The molecule further returned a Kd in data set [5] of 1.7 ± 0.2 µM.

B4: human PKD3 ULD (PKD3^55–149) (domain or fragment, UniProt O94806 55-149, looked up)
chain: GSVHTVSFLLQIGLTRESVTIEAQELSLSAVKDLVCSIVYQKFPECGFFGMYDKILLFRHDMNSENILQLITSADEIHEGDLVEVVLSALATVED
notes: human protein kinase D3 (PKD3), residues 55-149 (ubiquitin-like domain); also called ULD of human PKD3; source: E. coli BL21*, purified (GSH beads, TEV cleavage on beads, SEC); not shown: GST, N-terminal, cleaved
For B4, in data set [3], the “stoichiometry N” value was found to be 2.
